Measured values reported in patent publication US20240092891A1.
Read-outs that look alike come from different tables or passages of the source.

Key:
Assay in all cases: flow cytometry on human CLDN18.1-HEK293 cells, antibody at 100 µg/mL
[1] = molecular target: human CLDN18.1 (human) (UniProt P56856)
[2] = molecular target: human CLDN18.1 (human) (UniProt P56856); remark: listed apart in the source
[3] = molecular target: human CLDN18.1 (human) (UniProt P56856); remark: listed apart in the source

human CLDN18.1 (human), sequence (P56856 whole entry): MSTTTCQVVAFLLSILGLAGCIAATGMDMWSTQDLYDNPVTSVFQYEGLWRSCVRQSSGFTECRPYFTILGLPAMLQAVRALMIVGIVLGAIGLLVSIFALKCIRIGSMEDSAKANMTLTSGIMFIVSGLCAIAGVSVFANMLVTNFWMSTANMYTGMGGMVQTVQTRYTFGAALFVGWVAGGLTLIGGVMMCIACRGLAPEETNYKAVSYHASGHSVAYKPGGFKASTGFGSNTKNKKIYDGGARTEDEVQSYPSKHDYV

## irrelevant control hIgG1 (antibody)
[1]
  positive rate of cell binding: 0.851%
[2]
  positive rate of cell binding: 0.067%
[3]
  positive rate of cell binding: 0.049%
